These results are taken from paper PMC6294937, “Structure and architecture of immature and mature murine leukemia virus capsids” (Proceedings of the National Academy of Sciences of the …, 2018).

As usually defined, the stoichiometry N is a count of units in the complex or per binding partner.

Where “and” joins values, the source holds several entries; their conditions need not be identical. Equal values may be shown once.

Data set [1] has as its target MLV Gag polyprotein in immature virus particles (immature CA lattice) (murine leukemia virus (MLV)). Briefly: cryo-EM structure; cryo-ET and subtomogram averaging of the CA layer in purified, fixed immature MLV particles (PR D32L); 79 particles, sixfold symmetry, 6.6 Å; crystal structures fitted as rigid bodies.
For data set [2], the target named is truncated MLV CA-CTD (residues 132–218, CA-CTDΔCAH) (murine leukemia virus (MLV)). Briefly: crystal structure; X-ray, SAD with cobalt, 1.89 Å, space group P3(1)21; crystals grown at 20 °C, 37 mg/mL protein, 4% PEG 3350, 0.1 M Hepes pH 8.2, 5 mM each CoCl2, CdCl2, MgCl2, NiCl2.
Data set [3] concerns the molecule itself. Nature of the data set: cryo-EM structure; cryo-ET and subtomogram averaging of the CA lattice in purified, fixed mature MLV particles; 134 virions; hexamer 7.2 Å, pentamer 8.6 Å; repeated with a second preparation (8.1 Å); crystal structures fitted as rigid bodies.

“MLV Gag polyprotein in immature virus particles (immature CA lattice) (natural protein)” yielded a stoichiometry N in data set [1] of 6.

As to “truncated MLV CA-CTD (residues 132–218, CA-CTDΔCAH) (domain or fragment)”, in data set [2], the stoichiometry N worked out at 2.

B1: MLV CA (capsid) protein in mature virus particles (mature CA lattice) (natural protein)
chain: PLRAGGNGQLQYWPFSSSDLYNWKNNNPSFSEDPGKLTALIESVLITHQPTWDDCQQLLGTLLTGEEKQRVLLEARKAVRGDDGRPTQLPNEVDAAFPLERPDWDYTTQAGRNHLVHYRQLLLAGLQNAGRSPTNLAKVKGITQGPNESPSAFLERLKEAYRRYTPYDPEDPGQETNVSMSFIWQSAPDIGRKLERLEDLKNKTLGDLVREAEKIFNKRETPEEREERIRRETEEKEERRRTEDEQKEKERDRRRHREMSKLL
notes: CA (capsid) protein of murine leukemia virus, the product of cleavage of Gag by the viral protease; 263 residues (CA-CTD printed as residues 132-263); numbers count on: the CA protein; also called mature MLV CA; mature CA hexamer; source: HEK293T, transfected with the infectious clone pRR390; in purified mature virus particles, fixed with 1% paraformaldehyde
Take B1: the “stoichiometry N” value in data set [3] was 6 and 5.
